From article PMC3212559, “Large-Scale Protein-Protein Interaction Analysis in Arabidopsis Mesophyll Protoplasts by Split Firefly Luciferase Complementation” (PLoS ONE, 2011)

Tests used:
Experiment in all cases: split reporter (BiFC, NanoBiT); SFLC in living Arabidopsis mesophyll protoplasts: Aux/IAA-FLucN or MYB30-FLucN co-expressed with ARFCTD-FLucC or Aux/IAA-FLucC for 6 hr; 10 µg of each construct, 2×10^4 cells, 96-well plate, D-luciferin; relative activity standardised against ARF5CTD-FLucC + IAA28-FLucN
Conditions in all cases: partners not purified
IAA17-FLucC = target: T1, IAA17-FLucC (Arabidopsis, UniProt P93830 1-229)
T1 construct: Arabidopsis Aux/IAA protein IAA17; also called Aux/IAA-FLucC; source: Arabidopsis mesophyll protoplasts, transfected, in living cells; not shown: FLucC (firefly luciferase aa 394-550)
T1 sequence (P93830 whole entry, the tested form may be a part): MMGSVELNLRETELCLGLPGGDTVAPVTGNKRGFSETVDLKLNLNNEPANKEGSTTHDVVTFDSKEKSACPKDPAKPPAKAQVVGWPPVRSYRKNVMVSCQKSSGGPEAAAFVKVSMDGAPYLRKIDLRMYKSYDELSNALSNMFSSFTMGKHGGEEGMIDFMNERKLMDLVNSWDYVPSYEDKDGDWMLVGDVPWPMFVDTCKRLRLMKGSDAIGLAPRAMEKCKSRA

[1] = target: T2, ARF10 C-terminal domain (CTD)-FLucC (Arabidopsis, UniProt Q9SKN5 580-693)
T2 construct: Arabidopsis auxin response factor 10, C-terminal dimerization domain (CTD); In the ARF-ARF tests the same CTD stood both as ARFCTD-FLucC and as ARFCTD-FLucN; one molecule for both; also called ARF10CTD-FLucC; ARFCTD-FLucC; source: Arabidopsis mesophyll protoplasts, transfected, in living cells (SFLC) and in lysate (co-IP); not shown: FLucC (firefly luciferase aa 394-550)
T2 sequence (looked up): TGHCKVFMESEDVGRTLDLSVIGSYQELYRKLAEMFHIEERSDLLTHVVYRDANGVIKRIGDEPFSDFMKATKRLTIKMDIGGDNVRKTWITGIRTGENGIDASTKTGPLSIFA

IAA19-FLucC = target: T3, IAA19-FLucC (Arabidopsis, UniProt O24409 1-197)
T3 construct: Arabidopsis Aux/IAA protein IAA19; also called Aux/IAA-FLucC; source: Arabidopsis mesophyll protoplasts, transfected, in living cells; not shown: FLucC (firefly luciferase aa 394-550)
T3 sequence (looked up): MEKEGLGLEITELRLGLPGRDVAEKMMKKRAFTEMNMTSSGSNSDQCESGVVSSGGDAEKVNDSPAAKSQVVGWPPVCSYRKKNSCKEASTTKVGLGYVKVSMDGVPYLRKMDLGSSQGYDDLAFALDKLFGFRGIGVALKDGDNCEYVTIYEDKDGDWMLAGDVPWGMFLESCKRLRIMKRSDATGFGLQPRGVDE

[2] = target: T4, ARF9 C-terminal domain (CTD)-FLucC (Arabidopsis, UniProt Q9XED8 523-638)
T4 construct: Arabidopsis auxin response factor 9, C-terminal dimerization domain (CTD); In the ARF-ARF tests the same CTD stood both as ARFCTD-FLucC and as ARFCTD-FLucN; one molecule for both; also called ARF9CTD-FLucC; ARFCTD-FLucC; source: Arabidopsis mesophyll protoplasts, transfected, in living cells (SFLC) and in lysate (co-IP); not shown: FLucC (firefly luciferase aa 394-550)
T4 sequence (looked up): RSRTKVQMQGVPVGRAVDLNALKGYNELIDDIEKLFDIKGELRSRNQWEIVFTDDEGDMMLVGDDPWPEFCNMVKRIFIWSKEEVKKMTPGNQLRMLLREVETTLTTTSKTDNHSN

IAA18-FLucC = target: T5, IAA18-FLucC (Arabidopsis, UniProt O24408 1-267)
T5 construct: Arabidopsis Aux/IAA protein IAA18; also called Aux/IAA-FLucC; source: Arabidopsis mesophyll protoplasts, transfected, in living cells; not shown: FLucC (firefly luciferase aa 394-550)
T5 sequence (looked up): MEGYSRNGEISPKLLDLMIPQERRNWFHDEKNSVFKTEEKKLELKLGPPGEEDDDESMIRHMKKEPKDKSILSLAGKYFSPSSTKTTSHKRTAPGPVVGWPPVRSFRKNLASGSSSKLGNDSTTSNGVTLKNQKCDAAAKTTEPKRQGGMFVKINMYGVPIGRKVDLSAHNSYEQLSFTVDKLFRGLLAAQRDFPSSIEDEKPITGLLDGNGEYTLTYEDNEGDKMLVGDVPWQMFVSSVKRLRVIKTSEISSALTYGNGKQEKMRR

IAA1-FLucC = target: T6, IAA1-FLucC (Arabidopsis, UniProt P49677 1-168)
T6 construct: Arabidopsis Aux/IAA protein IAA1; also called Aux/IAA-FLucC; source: Arabidopsis mesophyll protoplasts, transfected, in living cells; not shown: FLucC (firefly luciferase aa 394-550)
T6 sequence (looked up): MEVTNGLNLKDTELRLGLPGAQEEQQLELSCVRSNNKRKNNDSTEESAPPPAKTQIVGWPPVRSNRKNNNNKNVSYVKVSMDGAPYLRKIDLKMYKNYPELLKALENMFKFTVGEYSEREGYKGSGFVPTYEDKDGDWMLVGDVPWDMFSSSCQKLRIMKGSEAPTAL

Measured: relative luciferase activity (standardised against ARF5CTD-FLucC + IAA28-FLucN)

B1: MYB30-FLucN (natural protein, UniProt Q9SCU7 1-323, looked up)
chain: MVRPPCCDKGGVKKGPWTPEEDIILVTYIQEHGPGNWRAVPTNTGLLRCSKSCRLRWTNYLRPGIKRGNFTEHEEKMIVHLQALLGNRWAAIASYLPQRTDNDIKNYWNTHLKKKLNKVNQDSHQELDRSSLSSSPSSSSANSNSNISRGQWERRLQTDIHLAKKALSEALSPAVAPIITSTVTTTSSSAESRRSTSSASGFLRTQETSTTYASSTENIAKLLKGWVKNSPKTQNSADQIASTEVKEVIKSDDGKECAGAFQSFSEFDHSYQQAGVSPDHETKPDITGCCSNQSQWSLFEKWLFEDSGGQIGDILLDENTNFF
notes: transcription factor MYB30, the unrelated protein used as negative control; source: Arabidopsis mesophyll protoplasts, transfected, in living cells; not shown: FLucN (firefly luciferase aa 1-398)
< 0.1: all assays above
